The target in data set [1] is U1 snRNP-A 1-142 (Homo sapiens) (UniProt P09012). As to the kind of experiment: EMSA.
For data set [2], the target named is A/B".1A pentamer mutant 1-142 L44V,V45A,S46L,R47K,S48T (Homo sapiens) (UniProt P09012). As to the kind of experiment: EMSA.
The target of data set [3] is U2 snRNP-B" 1-109 (Homo sapiens) (UniProt P08579). Nature of the data set: EMSA.
In data set [4] the test system is U2 snRNP-B" + U2 snRNP-A' (Homo sapiens). As to the kind of experiment: pulldown. The settings on record: A' stimulates B" binding to U2 about 100-fold.
The mark [5] stands for this setting: legend says full-length U2, text says U2 stem-loop IV.

Read-outs that look alike come from different tables or passages of the source.

UniProt P08579, sequence (P08579 1-109): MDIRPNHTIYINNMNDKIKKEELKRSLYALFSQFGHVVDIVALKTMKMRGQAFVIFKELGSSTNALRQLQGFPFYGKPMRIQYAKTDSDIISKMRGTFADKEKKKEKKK

Turning to U1SL2 (U1 stem-loop II), the Kd in data set [1] (earlier estimate 80 nM quoted, 10 mM MgCl2, 150 mM NaCl) was 30 nM; in data set [2], 70 nM; in data set [3] it was 800 nM.

Turning to human U2 RNA, the binding signal in data set [4] worked out at 100 fold. The Kd was over 10000 nM in data set [1] (setting [5]), 900 nM in data set [2] (setting [5]) and 400 nM in data set [3] (setting [5]).

These data come from patent US5866680.
